In the Human Domainome abundance scans (Beltran et al. 2025):
± gives the uncertainty stated by the source.

B1: Transcription factor SOX-4, residues 60 to 127; numbered along this chain, Q06945 (parent)
chain: KRPMNAFMVWSQIERRKIMEQSPDMHNAEISKRLGKRWKLLKDSDKIPFIREAERLRLKHMADYPDYK

Variants of: B1
Assay: abundance fitness (aPCA) (normalised: wild type 0, dead -1); higher = more abundant; growth selection in yeast, the domain comes from the species named
Conditions: Homo sapiens

Point of comparison: D63Y, abundance fitness -0.233 ± 0.057. Against it:
- D66I — within error, -0.13 ± 0.19
- D66A — within error, -0.186 ± 0.066
- D66H — within error, -0.141 ± 0.13
- D66C — lower, -0.422 ± 0.1
- D66E — higher, 0.102 ± 0.085
- D66T — within error, -0.216 ± 0.069
- D66Q — within error, -0.254 ± 0.083
- D66L — within error, -0.152 ± 0.06
- D66R — higher, 0.015 ± 0.078
- A62E — higher, -0.078 ± 0.068
- A62F — within error, -0.22 ± 0.059
- A62M — within error, -0.304 ± 0.075
- A62C — within error, -0.15 ± 0.049
- A62D — higher, 0.015 ± 0.046
- A62G — higher, -0.017 ± 0.038
- A62I — within error, -0.163 ± 0.064
- A62W — within error, -0.249 ± 0.054
- A62P — within error, -0.157 ± 0.067
- A62R — higher, -0.033 ± 0.041
- A62H — within error, -0.175 ± 0.067
- A62L — within error, -0.175 ± 0.042
- A62V — higher, -0.123 ± 0.037
- A62K — higher, 0.008 ± 0.063
- A62S — higher, -0.021 ± 0.037
- A62Y — higher, -0.104 ± 0.052
- D63C — lower, -0.397 ± 0.063
- D63S — within error, -0.153 ± 0.036
- D63F — within error, -0.283 ± 0.05
- D63A — higher, -0.074 ± 0.051
- D63I — within error, -0.181 ± 0.045
- D63K — within error, -0.128 ± 0.06
- D63M — higher, 0.055 ± 0.052
- D63W — within error, -0.179 ± 0.061
- D63H — within error, -0.168 ± 0.057
- D63T — higher, -0.104 ± 0.041
- D63L — within error, -0.208 ± 0.039
- D63E — higher, 0.044 ± 0.042
- D63G — within error, -0.142 ± 0.044
- D63V — within error, -0.224 ± 0.038
- D63P — within error, -0.117 ± 0.074
- M61W — within error, -0.224 ± 0.083
- M61Y — within error, -0.319 ± 0.25
- M61V — higher, -0.073 ± 0.072
- Y67Q — higher, 0.051 ± 0.15
- Y67E — higher, 0.179 ± 0.083
- Y67W — within error, -0.296 ± 0.11
- Y67L — higher, -0.022 ± 0.046
- Y67V — higher, 0.159 ± 0.085
- Y67G — higher, 0.119 ± 0.081
- Y67P — higher, -0.057 ± 0.088
- Y67H — within error, -0.301 ± 0.38
- Y67A — higher, 0.028 ± 0.093
- Y67C — within error, -0.04 ± 0.15
- Y67K — higher, 0.116 ± 0.11
- Y67I — higher, 0.11 ± 0.15
- Y67R — higher, 0.048 ± 0.11
- Y67F — higher, 0.259 ± 0.25
- Y67N — higher, 0.034 ± 0.15
- Y67M — higher, -0.069 ± 0.093
- Y67T — within error, -0.14 ± 0.08
- Y67S — higher, 0.088 ± 0.078
- P65T — higher, -0.064 ± 0.075
- P65S — higher, 0.102 ± 0.062
- P65M — within error, -0.193 ± 0.089
- P65D — higher, 0.103 ± 0.18
- P65G — higher, -0.059 ± 0.09
- P65V — higher, -0.097 ± 0.068
- P65K — higher, 0.018 ± 0.07
- P65Q — higher, 0.042 ± 0.063
- P65Y — within error, -0.124 ± 0.24
- P65W — lower, -0.466 ± 0.11
- P65I — within error, -0.333 ± 0.15
- P65H — within error, -0.09 ± 0.11
- P65A — within error, -0.267 ± 0.083
- P65R — within error, -0.174 ± 0.056
- P65E — higher, -0.025 ± 0.076
- K68R — higher, -0.068 ± 0.079
- K68E — within error, -0.155 ± 0.11
- K68C — within error, -0.242 ± 0.17
- K68L — within error, -0.297 ± 0.42
- K68M — within error, -0.23 ± 0.31
- K68P — within error, 0.128 ± 0.35
- K68T — within error, -0.436 ± 0.45
- K68Y — within error, -0.125 ± 0.2
- K68S — within error, -0.17 ± 0.096
- K68V — within error, -0.43 ± 0.34
